Legend:
Format in all cases: biochemical
[1] = homoserine transaminase activity, coupled dehydrogenase assay; conditions: measured at 50 mM homoserine; 2-oxoglutarate as acceptor
Experimental: (§1) Enzymatic assays: Transaminase activity of several candidate aminotransferases was quantified with 2-oxoglutarate as the amino group acceptor. Transaminase reactions were carried out using homoserine and the preferred amino acid of the enzymes. The reactions were followed by the amino acid-dependent oxidation of NADH in the coupled dehydrogenase reaction.
(§2) Transaminase Assays (Reaction Scheme)
(§3) Transaminase: Amino acid+2-oxoglutarate→2-oxo-acid+glutamate
(§4) Dehydrogenase: 2-oxo-acid+NADH→2-hydroxy-acid+NAD^+
The reaction mixture contained 60 mM Hepes (pH 7), 50 mM potassium chloride, 5 mM MgCl2, 4 mM 2-oxoglutarate, 0.1 mM pyridoxal-5′-phosphate (PLP), 0.25 mM NADH, (optionally 5 mM fructose-1,6-bisphosphate) (all products from Sigma), 4 Units/mL of auxiliary 2-hydroxyacid dehydrogenase, and appropriate amounts of purified aminotransferase or cell extract. The auxiliary dehydrogenase enzyme was purified PanE from L. lactis in case of the amino acids phenylalanine and leucine (Chambellon, Rijnen, Lorquet, Gitton, van HylckamaVlieg, Wouters, & Yvon, 2009), malate dehydrogenase (Sigma) in case of aspartate, and rabbit muscle (L)-lactate dehydrogenase (Sigma) when homoserine was used as the starting substrate. Reactions were started by adding 50 mM of the amino acid.
(§5) Enzymatic assays were carried out at 37° C. in 96-well flat bottomed microtiter plates in a final volume of 250 μL. The reactions were followed by the characteristic absorption of NAD(P)H at 340 nm (εNADPH=6.22 mM^−1 cm^−1) in a microplate reader (BioRad 680XR).

[2] = transaminase activity on preferred amino acid (A), coupled dehydrogenase assay; conditions: superscript (A); 50 mM amino acid; 2-oxoglutarate as acceptor
Experimental: as §1, §2, §3, §4
(§6) The reaction mixture contained 60 mM Hepes (pH 7), 50 mM potassium chloride, 5 mM MgCl2, 4 mM 2-oxoglutarate, 0.1 mM pyridoxal-5′-phosphate (PLP), 0.25 mM NADH, (optionally 5 mM fructose-1,6-bisphosphate) (all products from Sigma), 4 Units/mL of auxiliary 2-hydroxyacid dehydrogenase, and appropriate amounts of purified aminotransferase or cell extract. […]
as §5

[3] = transaminase activity on preferred amino acid (L), coupled dehydrogenase assay; conditions: superscript (L); 50 mM amino acid; 2-oxoglutarate as acceptor
Experimental: as §1, §2, §3, §4, §6, §5

| Molecule | Max. specific activity on Homoserine [1] | Max. specific activity on preferred amino acid (A) [2] | Max. specific activity on preferred amino acid (L) [3] |
| --- | --- | --- | --- |
| Ec-AspC: aspartate transaminase from E. coli, SEQ ID No. 64 (protein, listed as Escherichia coli) MFENITAAPADPILGLADLFRADERPGKINLGIGVYKDETGKTPVLTSVKKAEQYLLENETTKNYLGIDGIPEFGRCTQELLFGKGSALINDKRARTAQTPGGTGALRVAADFLAKNTSVKRVWVSNPSWPNHKSVFNSAGLEVREYAYYDAENHTLDFDALINSLNEAQAGDVVLFHGCCHNPTGIDPTLEQWQTLAQLSVEKGWLPLFDFAYQGFARGLEEDAEGLRAFAAMHKELIVASSYSKNFGLYNERVGACTLVAADSETVDRAFSQMKAAIRANYSNPPAHGASVVATILSNDALRAIWEQELTDMRQRIQRMRQLFVNTLQEKGANRDFSFIIKQNGMFSFSGLTKEQVLRLREEFGVYAVASGRVNVAGMTPDNMAPLCEAIVAVL | 0.082 μmol/(min mgprot) | 74.031^(A) μmol/(min mgprot) |  |
| Ll-BcaT: branched-chain-amino-acid transaminase from Lactococcus lactis, SEQ ID No. 68 (protein, listed as Lactococcus lactis) MAINLDWENLGFSYRNLPFRYIARFKDGKWSAGELTGDNQLHISESSPALHYGQQGFEGLKAYRTKDGSIQLFRPDQNAARLQNTARRLCMAEVPTEMFIDAVKQVVKANEDFVPPYGTGATLYLRPLLIGVGDVIGVKPADEYIFTVFAMPVGSYFKGGLAPSKFVISRDYDRAAPLGTGGAKVGGNYAASLQAEVGAKASGYADAIYLDPSTHTKIEEVGAANFFGITADNEFITPLSPSILPSITKYSLLYLAEHRLGLKAIEGEVYAKDLGKFVEAGACGTAAIISPIGRIDDGEDSYIFHSETEVGPTVKRLYDELVGIQFGDVEAPEGWIVKVD | 0.028 μmol/(min mgprot) |  | 30.39^(L) μmol/(min mgprot) |
| Ec-IlvE: branched-chain-amino-acid transaminase from Escherichia coli, SEQ ID No. 60 (protein, listed as Escherichia coli) MTTKKADYIWFNGEMVRWEDAKVHVMSHALHYGTSVFEGIRCYDSHKGPVVFRHREHMQRLHDSAKIYRFPVSQSIDELMEACRDVIRKNNLTSAYIRPLIFVGDVGMGVNPPAGYSTDVIIAAFPWGAYLGAEALEQGIDAMVSSWNRAAPNTIPTAAKAGGNYLSSLLVGSEARRHGYQEGIALDVNGYISEGAGENLFEVKDGVLFTPPFTSSALPGITRDAIIKLAKELGIEVREQVLSRESLYLADEVFMSGTAAEITPVRSVDGIQVGEGRCGPVTKRIQQAFFGLFTGETEDKWGWLDQVNQ | 0.077 μmol/(min mgprot) |  | 10.3^(L) μmol/(min mgprot) |
| Sc-ARO8: aromatic-amino-acid transaminase from Saccharomyces cerevisiae, SEQ ID No. 70 (protein, listed as Saccharomyces cerevisiae) MTLPESKDFSYLFSDETNARKPSPLKTCIHLFQDPNIIFLGGGLPLKDYFPWDNLSVDSPKPPFPQGIGAPIDEQNCIKYTVNKDYADKSANPSNDIPLSRALQYGFSAGQPELLNFIRDHTKIIHDLKYKDWDVLATAGNTNAWESTLRVFCNRGDVILVEAHSFSSSLASAEAQGVITFPVPIDADGIIPEKLAKVMENWTPGAPKPKLLYTIPTGQNPTGTSIADHRKEAIYKIAQKYDFLIVEDEPYYFLQMNPYIKDLKEREKAQSSPKQDHDEFLKSLANTFLSLDTEGRVIRMDSFSKVLAPGTRLGWITGSSKILKPYLSLHEMTIQAPAGFTQVLVNATLSRWGQKGYLDWLLGLRHEYTLKRDCAIDALYKYLPQSDAFVINPPIAGMFFTVNIDASVHPEFKTKYNSDPYQLEQSLYHKVVERGVLVVPGSWFKSEGETEPPQPAESKEVSNPNIIFFRGTYAAVSPEKLTEGLKRLGDTLYEEFGISK | 0.076 μmol/(min mgprot) |  |  |
